Source: the RNAGym collection of RNA variant scans (doi:10.1073/pnas.2313332121)
Variants at the floor of the assay were thinned out.

B1: TPR 5TU (parent)
chain: GGAUCUUCUCGAUCUAACAAAAAAGACAAAUCUGCCACAAAGCUUGAGAGCAUCUUCGGAUGCAGAGGCGGCAGCCUUCGGUGGCGCGAUAGCGCCAACGUUCUCAACUAUGACACGCAAAACGCGUGCUCCGUUGAAUGGAGUUUAUCAUG

Variants of: B1
Assay: polymerase ribozyme fitness, log enrichment relative to wild type (log ratio); higher = more active; in vitro selection for triplet polymerase activity
Procedure, shortened: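 Fitness is a logarithmic measure of how a genotype enriched relative to the wild type, with replicate averages weighted by inverse variance. The logarithm uses base 2, and enrichment came from Illumina sequencing of input and output libraries. Those libraries were PCR-built, transcribed mutants of each subunit of a heterodimeric triplet polymerase ribozyme, passed through one triplicate in vitro selection round that included frozen incubation at −7 °C, gel excision of extended constructs and streptavidin-bead capture. Genotypes were kept only if they had ≥10 input reads and ≥1 read per output.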

Variant | polymerase ribozyme fitness (log ratio)
U4C A26U C69U | -2.9
U4G C5G A29G A52U G67U C79G G83A | ≤ -4.2
U4G G11U G59A C93U C125U U144C | ≤ -4.2
U4A A49G G50C A66C C76G C93U | ≤ -4.2
U4G C8G A23C A52G C54G G74C | ≤ -4.2
U4A A17C G94A C149U | -1.61
A3U G25U C27U C36A C87U C105G C118U G152C | ≤ -4.2
A3U C114U C118G A137C G141C | ≤ -4.2
U4G A23G C32U G62C G94C G126A G143U | -4.05
U4G C5A U55G | -0.269
U4G G48A G88C C123U U134G A137C | ≤ -4.2
A3U C8A U13G U90A C93A A107G G143C | ≤ -4.2
U4G A37C C87U A122G C125A | -3.07
A3U G80U G94U U104G C108U G126C U148A | ≤ -4.2
U4C C10U U56G A60U G92U | -3.76
A3U C5G A19U C36U G83A | -3.1
A3U C10U U56A C96U C116U G143A | -3.56
U4G A20C C85U | -0.147
U4C A22U A73U C96G A120G | -2.21
U4G A40G C72G C87U U104G C118U A122G | ≤ -4.2
A3U C5G C18U U31A C76U G94U | -1.46

Variant | polymerase ribozyme fitness (log ratio)
U4C C14U U15A A41C C93A C95U | ≤ -4.2
U4A A21U C38U C85A C87G C103A | ≤ -4.2
A3U U4A A16U U31A C85U G88A C125U U146G | ≤ -4.2
U4A A37U G94C A150G | -4.19
U4A A26G A49C A107G | ≤ -4.2
A3U U145C | -0.205
A3U G65A C85A | -3.12
U4C A49G C51A C87A C132U A150C | ≤ -4.2
U4G G25A U45G C87A C99A C103U C105G U139G G143A | -4.11
A3U C51U U56G G58C G59A A73G | -3.64
A3U C10U U61A G65A A66C | ≤ -4.2
A3U C76A C87U A113C U130A | ≤ -4.2
U4A G83U C95G G124U U148C | ≤ -4.2
U4G U9C A23U C43A U56G C87U U111G C132U | ≤ -4.2
U4G C87A | ≤ -4.2
U4A A20U G50C U55A A73G G84A G88C C132U U135A | ≤ -4.2
A3U C87G | -3.94
A3U C87U | -0.956
U4A A16U A17G A21U A24U G84A C114U A122U A142C | ≤ -4.2
U4A C10U A17G A21C C43U G92A C105A G124C | ≤ -4.2
U4C A22G G86A | -1.64

Variant | polymerase ribozyme fitness (log ratio)
U4A A21C | 0.483
U4A A22C U56A G124U U135C | -3.48
U4C A12G A73G C93U G152A | -3.07
U4G A21C C93G | -1.92
U4G A49G C87G | ≤ -4.2
U4C C5U A12C G25C A40U G58C G133U | ≤ -4.2
U4C G86U | -1.9
U4A C18U G67A C93G G124A | ≤ -4.2
U4C C36U A49G A66U G83A C85G G88A C114U U146G | ≤ -4.2
A3U G94A | -1.21
U4A C38A U53G C85U G94C A107G A137C G140A | ≤ -4.2
U4G U7G U13G C43A C54U U78G G94C | ≤ -4.2
U4C A17U G50U G58A G92C C99U G117U | ≤ -4.2
U4A C5G G58A A73U C75U C85A G100A C105G U145A | ≤ -4.2
U4A C8U C108G G140C | ≤ -4.2
U4C U144G | 0.832
U4G C54G A64U C95U U134G | ≤ -4.2
U4C A16C A19U G86U C96A C108A | ≤ -4.2
U4C C57U A66C C87U | ≤ -4.2
A3U G88A A110G | ≤ -4.2
U4C G11U G42C G48A U53G C57G G81U C85U | ≤ -4.2

Variant | polymerase ribozyme fitness (log ratio)
U4A G65A C85U A97U | -2.2
U4G C69G C96U A142C | -3.64
U4G C114U | -2.01
U4C A16C U55A G74U C85U C87U C103U U146A A147C | ≤ -4.2
A3U U7A C8A C63U U90G | ≤ -4.2
U4G C35U G83C G124U U146C | -2.43
U4A A29U C38U U44A U55A C57U C87G C95G | ≤ -4.2
A3U C85A | -1.48
U4A A17C G59C A119G | -0.404
U4G A47U G58C C93G | -4
A3U C35G C93U G100A C105G G133C | ≤ -4.2
U4G C10A C35U G83U G88C A120C G143A | -4.17
U4A C54U U56A C79G C85U C103G C116U G143C | ≤ -4.2
A3U U6A A39G C96G G124U G141A | -3.93
U4A G84A | -0.288
A3U C8U C27A A28C C51A A52C C54A C93U C103G C108G A115C C118A U135A A142U | ≤ -4.2
U4G U6G C85U G141A | -3.39
U4A C5U C32A C54U G58A A73G G84A A91G A121U C125U U145C U146C | ≤ -4.2
A3U C36A G42C C87A A89G G100C | ≤ -4.2
U4A C43U G65U U77C U111G | ≤ -4.2
U4C U53A U55A G81C A150U | -1.4
